Patent US20160347841A1 (UNIVERSIDAD NACIONAL AUT NOMA DE M XICO, published 2016)

Biological target: T1, DEC-205 receptor of dog spleen cells (dog, UniProt A0A8I3Q134 28-1723)
T1 construct: whole, on cells; It only reports that no 205 kDa band was isolated
Assay: immunoprecipitation from spleen white cell lysate, SDS-PAGE
Description: For this purpose Jurkat cells (the cell line of human T lymphocytes) as well as white cells obtained from the spleens of different animals (pigs and dogs) were lysed in an immunoprecipitation buffer (PBS pH 7.4, 1% Triton X-100 with protease inhibitor). […] Then, 50 μL of A-Sepharose protein (Pierce, Rockford, Ill., USA) was used for immunoprecipitation, with incubation being done for one hour at ambient temperature. The immune complexes that were formed were washed extensively. The immunoprecipitates were eluted by boiling for five minutes in a sample buffer with SDS. These precipitates were analyzed on a 10% SDS-PAGE gel under reducing conditions using molecular weight markers. […] The molecular weights are indicated.

T1 sequence (A0A8I3Q134 entry or part of it): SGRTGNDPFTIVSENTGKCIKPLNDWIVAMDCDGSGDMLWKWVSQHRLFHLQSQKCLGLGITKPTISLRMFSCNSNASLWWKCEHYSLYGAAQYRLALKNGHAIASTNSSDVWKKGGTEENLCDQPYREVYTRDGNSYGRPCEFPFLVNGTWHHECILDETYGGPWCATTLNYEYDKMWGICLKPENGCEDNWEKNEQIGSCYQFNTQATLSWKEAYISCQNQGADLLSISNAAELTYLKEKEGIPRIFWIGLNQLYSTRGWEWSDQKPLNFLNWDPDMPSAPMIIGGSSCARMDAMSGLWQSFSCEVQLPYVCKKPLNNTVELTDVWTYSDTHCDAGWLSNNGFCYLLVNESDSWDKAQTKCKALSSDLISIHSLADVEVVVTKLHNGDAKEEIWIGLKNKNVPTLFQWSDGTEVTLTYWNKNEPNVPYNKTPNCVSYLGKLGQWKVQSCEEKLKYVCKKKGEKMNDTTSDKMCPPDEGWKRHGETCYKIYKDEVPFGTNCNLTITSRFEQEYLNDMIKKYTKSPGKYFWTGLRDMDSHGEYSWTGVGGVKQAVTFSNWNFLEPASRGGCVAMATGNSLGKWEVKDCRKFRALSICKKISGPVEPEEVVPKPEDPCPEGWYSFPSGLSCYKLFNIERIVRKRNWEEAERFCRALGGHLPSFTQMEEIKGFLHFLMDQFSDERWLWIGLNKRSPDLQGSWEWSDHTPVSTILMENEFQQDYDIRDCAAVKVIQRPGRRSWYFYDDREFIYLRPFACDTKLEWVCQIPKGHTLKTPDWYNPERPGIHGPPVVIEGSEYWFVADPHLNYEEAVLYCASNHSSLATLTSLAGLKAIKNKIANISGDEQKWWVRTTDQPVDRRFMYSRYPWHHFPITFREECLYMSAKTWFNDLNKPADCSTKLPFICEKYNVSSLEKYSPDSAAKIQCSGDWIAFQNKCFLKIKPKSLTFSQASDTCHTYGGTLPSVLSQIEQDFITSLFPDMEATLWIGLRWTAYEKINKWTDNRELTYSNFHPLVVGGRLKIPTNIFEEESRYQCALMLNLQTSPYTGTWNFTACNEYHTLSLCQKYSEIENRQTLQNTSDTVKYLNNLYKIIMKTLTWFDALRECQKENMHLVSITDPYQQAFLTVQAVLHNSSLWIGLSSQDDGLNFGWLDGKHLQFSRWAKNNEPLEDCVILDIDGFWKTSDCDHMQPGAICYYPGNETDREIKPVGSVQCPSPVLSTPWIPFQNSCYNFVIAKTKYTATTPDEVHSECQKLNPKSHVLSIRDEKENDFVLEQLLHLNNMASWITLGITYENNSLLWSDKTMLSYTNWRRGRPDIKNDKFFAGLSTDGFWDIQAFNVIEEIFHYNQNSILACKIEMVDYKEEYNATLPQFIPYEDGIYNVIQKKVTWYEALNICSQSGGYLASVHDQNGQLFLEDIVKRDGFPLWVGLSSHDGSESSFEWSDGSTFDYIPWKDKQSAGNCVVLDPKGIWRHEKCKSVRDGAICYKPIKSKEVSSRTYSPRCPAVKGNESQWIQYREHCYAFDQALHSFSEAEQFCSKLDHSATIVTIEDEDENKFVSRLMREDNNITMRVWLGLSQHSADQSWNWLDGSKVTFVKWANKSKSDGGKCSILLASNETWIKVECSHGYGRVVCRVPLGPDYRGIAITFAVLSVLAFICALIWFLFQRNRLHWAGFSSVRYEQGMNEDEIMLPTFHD

B1: murine monoclonal antibody 2F2E8E3B6 anti-CTLD-2 (antibody, IgG2a, V domains shown)
VH: EVQLQQSTAEFVKPGASVKLSCTASGFNIKDTYIHWVKQRPEQGLEWIGRIDPANGNTRYDPKFQGKATMTADTSSNTAYLQLSSLTSEDTAVYYCARYDVTYWGQGTLVTVS
VL: DIVMSQSPSSLAVSAGERVTMSCKSSQSLLNSRTRKNYLAWYQQKPGQSPKLLIYWASTRESGVPDRFTGSGSGTDFTLTISSVRAEDLAVYYCKQSYNLYTFGRGTKLEIK
notes: also called 2F2E8D3B6; AbM 2F2E8E3B6
  binding result: no binding
